Values quoted from earlier work in article PMC3720600.

Target: Cys145 (UniProt position 145, PILIPCHRVVC)

Substance: O6-methylguanine-DNA methyltransferase (MGMT; O6-alkylguanine-DNA alkyltransferase, AGT) (Homo sapiens)
- pKa: 4.8
